According to article PMC11289442 (Nature Communications, 2024):

Key:
Experiment in all cases: SDS-PAGE without heat denaturation and immunoblot
[1] = target: CFP-OsUVR8a (in transgenic Arabidopsis uvr8-6) (rice (Oryza sativa))
[2] = target: CFP-OsUVR8b (in transgenic Arabidopsis uvr8-6) (rice (Oryza sativa))
[3] = target: the molecule itself

Molecule	stoichiometry N [3]	other results
CFP-OsUVR8a (in transgenic Arabidopsis uvr8-6) (natural protein)	–	stoichiometry N [1]: 2
CFP-OsUVR8b (in transgenic Arabidopsis uvr8-6) (natural protein)	–	stoichiometry N [2]: 2
CFP-OsUVR8b (in transgenic rice) (natural protein) MDAVMSAADDAGAASGREDPPPAVVLVSAGASHSVALLAGNVLCSWGRGEDGQLGHGDAEDRLVPTVLSGFDAAAPGITSVICGADHTTAYSEDEQQVYSWGWGDFGRLGHGNSSDVFTPQPVKALQGIKIKQIACGDSHCLAVTMAGEVQSWGRNQNGQLGLGTTEDSLLPQKIQSFEGVCVKMIAAGAEHTAAVTEDGDLYGWGWGRYGNLGLGDRNDRLVPEKVSSVEGEKMVLIACGWRHTITVSSSGSLYTYGWSKYGQLGHGDFEDHLVPHKLEALKDSSISQISGGWRHTMALTSDGKLYGWGWNKFGQVGVGDTDDHCFPVQVKFPEDQKVAQVACGWRHTLAFTEKKNVFSWGRGTSGQLGHGEIVDRNKPVMIDALSPDGPGCKKLEPSTAVPFAAKVWVSPSERYAIVPDEKVPNSGEGTARGNGADANVPENDVKRMRVHS	2	–
CFP-OsUVR8a (in transgenic rice) (natural protein) MHSTGMEMEVEVAGDDEAVPEAPERSVVLISAGASHSVALLSGGVVCSWGRGEDGQLGHGDAEDRPVPTVLTAAFDDAPGGVASVVICGADHTTAYSDEELQLYSWGWGDFGRLGHGNSSDVFNPQPIQALQGVRITQIACGDSHCLAVTVAGHVHSWGRNQNGQLGLGNTEDSLLPQKIQAFEGVRVKMIAAGAEHTAAVTEDGDLYGWGWGRYGNLGLGDRDDRLIPEKVSSVNGQKMVLVACGWRHTITVSSSGSIYTYGWSKYGQLGHGDFEDHLVPHKLEALKDTTISQISGGWRHTMALAADGKLYGWGWNKFGQVGVGDNEDHCSPVQVNFPNEQKVVQVACGWRHTLALTEAKNVFSWGRGTSGQLGHGEIVDRNIPKMIDALSSDGSACKQLESSKAVPMSAKVWVSPSERYAIVPDEKAGKGIPAGNGTETHVPQGDVKRMRV	2	–
